Data from patent US20230174641A1 (H LUNDBECK A S, published 2023).
Substitutions are numbered along the chain they refer to. Values belong to the binder of their own block, whether it stands above or below them. Ends that are not written are not given here.

Tests used:
human ACTH 1-39 [1] = molecular target: T1, human ACTH 1-39 (human); assay: cell-based or functional assay
T1 peptide: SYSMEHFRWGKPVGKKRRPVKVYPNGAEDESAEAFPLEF

human ACTH 1-39 [2] = molecular target: T1, human ACTH 1-39; assay: cell-based or functional assay
human ACTH 1-39 [3] = molecular target: T1, human ACTH 1-39; assay: cell-based or functional assay
human ACTH 1-39 [4] = molecular target: T1, human ACTH 1-39; assay: cell-based or functional assay
human ACTH 1-39 [5] = molecular target: T1, human ACTH 1-39; assay: SPR ProteOn, antibody immobilised
Description: (§1) Antibody was immobilized to the surface of general amine coupling (GLC or GLM) Chips (Bio-Rad). […] At the chosen concentrations of antigen (ranging from 454 ng/ml to 5.6 ng/ml) association times of 200 seconds and dissociation times of 30-200 minutes were used with the ProteOnTM Manager Software (v3.1.0.6, Bio-Rad) to group and fit data using a 1:1 Langmuir binding model. Surfaces were regenerated between analyte queries using 10 mM glycine at pH 2.0. Data repeated across a single density was averaged and a single KD and standard propagation of error calculated for each antibody.

human ACTH 1-13 [6] = molecular target: T2, human ACTH 1-13 (human, ends and bridges not checked); assay: SPR ProteOn, antibody immobilised
T2 construct: also called human alpha-MSH (ACTH 1-13); alpha-MSH
T2 peptide: SYSMEHFRWGKPV
Description: as §1

human ACTH 18-39 [7] = molecular target: T3, human ACTH 18-39 (human); assay: SPR ProteOn, antibody immobilised
T3 construct: also called CLIP; CLIP (ACTH 18-39)
T3 peptide: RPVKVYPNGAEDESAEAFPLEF
Description: as §1

[8] = molecular target: T4, N-term biotinylated human ACTH 1-39 (human, N-terminal biotin); assay: ELISA, biotin-ACTH 1-39 on neutravidin plate
T4 construct: also called huACTH 1-39
T4 peptide: T1 peptide
Description: All incubations were done at room temperature. […] The plates were then blocked using a blocking solution (PBS, 0.5% fish skin gelatin, 0.05% Tween-20) for approximately one hour. The blocking solution was then removed and the plates were then incubated with a dilution series of the antibody being tested for approximately one hour. At the end of this incubation, the plate was washed three times with wash buffer and further incubated with a secondary antibody containing solution (Peroxidase conjugated AffmiPure™ F(ab′)₂ fragment goat anti-human IgG, Fc fragment specific (Jackson Immunoresearch) for approximately 45 minutes and washed three times. Next a substrate solution (TMB peroxidase substrate, BioFx®, SurModics, Eden Prairie, Minn.) was added and incubated for 3 to 5 minutes in the dark. The reaction was stopped by addition of 0.5 M HCl and the plate was read at 450 nm in a plate-reader.

human ACTH 18-39 [9] = molecular target: T3, human ACTH 18-39; assay: SPR ProteOn, antibody immobilised; SPR, antibody on the chip, CLIP alone (Table 5)
Description: as §1

human ACTH 1-13 [10] = molecular target: T2, human ACTH 1-13; assay: SPR ProteOn, antibody immobilised; SPR, antibody on the chip, alpha-MSH alone (Table 6)
Description: as §1

ACTH 1-24 = molecular target: T5, ACTH 1-24 (human); assay: cell-based or functional assay
T5 peptide: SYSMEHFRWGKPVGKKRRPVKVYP

MC2R IC50 (human ACTH 1-39 [1]): 0.14 nM
MC1R IC50 (human ACTH 1-39 [2]): 2.38 nM
MC3R IC50 (human ACTH 1-39 [3]): 101 nM
MC4R IC50 (human ACTH 1-39 [3]): 56.4 nM
MC5R IC50 (human ACTH 1-39 [3]): 1100 nM
Y1 Cells IC50 (human ACTH 1-39 [4]): 2.36 nM
Kd (human ACTH 1-39 [5]): 0.19 nM
koff (human ACTH 1-39 [5]): 0.00019 s⁻¹
koff (human ACTH 1-13 [6]): > 0.1 s⁻¹
Kd (human ACTH 18-39 [7]): 150 nM
koff (human ACTH 18-39 [7]): 0.092 s⁻¹
kon (human ACTH 18-39 [7]): 620000 M⁻¹ s⁻¹
EC50 [8]: 0.48 nM
B1: Ab1 (antibody, human IgG1, kappa, N297A, V domains shown)
VH: QSVKESGGRLVTPGTPLTLTCTVSGFSLSNYDMIWVRQAPGKGLESIGMIYDDGDTYYASWAKGRFTISKTSTTVDLKIISPTTEDTATYFCVKGVSNHWGPGTLVTVSS
VL: DVVMTQTPASVEAAVGGTVTIKCQASQSISSYLAWYQQKPGQPPKLLIYSASTLASGVPSRFKGRGSGTEFTLTISDLECADAATYYCQSYDGSSGSSYGVGFGGGTEVVVKR
notes: rabbit/human chimeric antibody, made in HEK-293

MC2R IC50 (human ACTH 1-39 [1]): 0.05 nM
MC1R IC50 (human ACTH 1-39 [2]): 1.66 nM
Y1 Cells IC50 (human ACTH 1-39 [4]): 2.68 nM
koff (human ACTH 1-13 [6]): > 0.1 s⁻¹
EC50 [8]: 0.76 nM
Kd (human ACTH 18-39 [9]): 27 nM
koff (human ACTH 18-39 [9]): 0.024 s⁻¹
kon (human ACTH 18-39 [9]): 890000 M⁻¹ s⁻¹
B2: Ab12 (antibody, human IgG1, kappa, N297A, V domains shown)
VH: B1 VH with K4E, F26S, N30D, M49I, S60T, K78R, H99M
VL: B1 VL with A9S, E12S, S30G, Y32S, P43R, S50A, R65S, G96S
notes: as for B1

MC2R IC50 (human ACTH 1-39 [1]): 0.16 nM
MC1R IC50 (human ACTH 1-39 [2]): 2.14 nM
MC3R IC50 (human ACTH 1-39 [3]): 133 nM
MC4R IC50 (human ACTH 1-39 [3]): 66.3 nM
MC5R IC50 (human ACTH 1-39 [3]): 5400 nM
Y1 Cells IC50 (human ACTH 1-39 [4]): 5.98 nM
Kd (human ACTH 1-39 [5]): 0.11 nM
koff (human ACTH 1-39 [5]): 0.00011 s⁻¹
kon (human ACTH 1-39 [5]): 1e+06 M⁻¹ s⁻¹
koff (human ACTH 1-13 [6]): > 0.1 s⁻¹
EC50 [8]: 1.57 nM
Kd (human ACTH 18-39 [9]): 250 nM
koff (human ACTH 18-39 [9]): 0.27 s⁻¹
kon (human ACTH 18-39 [9]): 1.1e+06 M⁻¹ s⁻¹
B3: Ab10 (antibody, human IgG1, kappa, N297A, V domains shown)
VH: B1 VH with K4E, N30S, Y31A, S60T, N98S, H99V, P102Q
VL: B1 VL with K22N, Q27E, S28N, S30Y, S31R, Y32S, R65S, G96S
notes: as for B1

MC2R IC50 (human ACTH 1-39 [1]): 0.03 nM
MC1R IC50 (human ACTH 1-39 [2]): 1.49 nM
MC3R IC50 (human ACTH 1-39 [3]): 108 nM
MC4R IC50 (human ACTH 1-39 [3]): 49.4 nM
MC5R IC50 (human ACTH 1-39 [3]): 4200 nM
Y1 Cells IC50 (human ACTH 1-39 [4]): 1.53 nM
Kd (human ACTH 1-39 [5]): 0.04 nM
koff (human ACTH 1-39 [5]): 4e-05 s⁻¹
kon (human ACTH 1-39 [5]): 1e+06 M⁻¹ s⁻¹
koff (human ACTH 1-13 [6]): > 0.1 s⁻¹
Kd (human ACTH 18-39 [9]): 54 nM
koff (human ACTH 18-39 [9]): 0.086 s⁻¹
kon (human ACTH 18-39 [9]): 1.6e+06 M⁻¹ s⁻¹
B4: Ab11 (antibody, human IgG1, kappa, N297A, V domains shown)
VH: QSLEESGGRLVTPGTSLTLTCTASGFSLSAYDILWVRQAPGKGLESIGMMYDDGDTYYATWAKGRFIISRTSTTMDLKIISPTTEDTATYFCVKGVSNIWGQGTLVTVSS
VL: B1 VL with V2I, T7I, S30D, Y32S, R65S, S76G, G96S, S98Y, V101I
notes: as for B1

MC2R IC50 (human ACTH 1-39 [1]): 0.46 nM
MC1R IC50 (human ACTH 1-39 [2]): 5.73 nM
MC3R IC50 (human ACTH 1-39 [3]): 113 nM
MC4R IC50 (human ACTH 1-39 [3]): 65.8 nM
MC5R IC50 (human ACTH 1-39 [3]): 1300 nM
Y1 Cells IC50 (human ACTH 1-39 [4]): 17.2 nM
Kd (human ACTH 1-39 [5]): 0.27 nM
koff (human ACTH 1-39 [5]): 0.00027 s⁻¹
kon (human ACTH 1-39 [5]): 1e+06 M⁻¹ s⁻¹
koff (human ACTH 1-13 [6]): > 0.1 s⁻¹
Kd (human ACTH 18-39 [7]): 270 nM
koff (human ACTH 18-39 [7]): 0.19 s⁻¹
kon (human ACTH 18-39 [7]): 710000 M⁻¹ s⁻¹
EC50 [8]: 0.39 nM
B5: Ab4 (antibody, human IgG1, kappa, N297A, V domains shown)
VH: B1 VH with K4E, C21Y, N30K, Y31H, M49I, S60N, H99I
VL: B1 VL with Q24R, S31V, P40A, S50Q, T53K, R65S, G96S
notes: as for B1

MC2R IC50 (human ACTH 1-39 [1]): 0.09 nM
MC1R IC50 (human ACTH 1-39 [2]): 1.29 nM
MC3R IC50 (human ACTH 1-39 [3]): 64.2 nM
MC4R IC50 (human ACTH 1-39 [3]): 49.7 nM
MC5R IC50 (human ACTH 1-39 [3]): 1100 nM
Y1 Cells IC50 (human ACTH 1-39 [4]): 2.49 nM
Kd (human ACTH 1-39 [5]): 0.037 nM
koff (human ACTH 1-39 [5]): 3.7e-05 s⁻¹
kon (human ACTH 1-39 [5]): 1e+06 M⁻¹ s⁻¹
koff (human ACTH 18-39 [7]): > 0.1 s⁻¹
EC50 [8]: 2.24 nM
Kd (human ACTH 1-13 [10]): 54 nM
koff (human ACTH 1-13 [10]): 0.013 s⁻¹
kon (human ACTH 1-13 [10]): ~240000 M⁻¹ s⁻¹
B6: Ab7 (antibody, human IgG1, kappa, N297A, V domains shown)
VH: QSVEESGGRLVTPGTPLTLTCTVSGFSLSSYAMSWVRQAPGEGLEWIGIISDSGSTYYASWAKGRFTISKTSTTVDLRITSPTTEDTATYFCAREPEYGYDDYGDWVSDLWGQGTLVTVSS
VL: DIVMTQTPASVEAAVGGTVTIKCQASQSISDYLSWYQQKPGQPPKLLIYRASTLASGVPSRFKGSGSGTQFTLTISDLECADAATYYCQSYYYSSSITYRNAFGGGTEVVVKR
notes: as for B1

MC2R IC50 (human ACTH 1-39 [1]): 0.03 nM
MC1R IC50 (human ACTH 1-39 [2]): 1.04 nM
MC3R IC50 (human ACTH 1-39 [3]): 62.8 nM
MC4R IC50 (human ACTH 1-39 [3]): 55.2 nM
MC5R IC50 (human ACTH 1-39 [3]): 1000 nM
Y1 Cells IC50 (human ACTH 1-39 [4]): 1.44 nM
IC50 (nM), cAMP in MC2R cells (ACTH 1-24): 0.1 nM
Kd (human ACTH 1-39 [5]): 0.019 nM
koff (human ACTH 1-39 [5]): 1.9e-05 s⁻¹
kon (human ACTH 1-39 [5]): 1e+06 M⁻¹ s⁻¹
koff (human ACTH 18-39 [7]): > 0.1 s⁻¹
EC50 [8]: 2 nM
Kd (human ACTH 1-13 [10]): 16 nM
koff (human ACTH 1-13 [10]): 0.0052 s⁻¹
kon (human ACTH 1-13 [10]): 330000 M⁻¹ s⁻¹
B7: Ab6 (antibody, human IgG1, kappa, N297A, V domains shown)
VH: B6 VH with S29T, S30D, I68F, D102E, Q113P
VL: B6 VL with T18A, S26T, S30G, D31N, Y32N, S34A, Q70E, R100H
notes: as for B1
